From US20260265354A1 (JIANGSU MABWELL HEALTH PHARMACEUTICAL R AND D, published 2026) come the findings set out here.

The target in test [1] is T1, Nectin-2 (UniProt Q92692 32-360, limits assumed).
T1 construct: Bought recombinant protein; also called CD112; PVRL-2
T1 sequence (looked up): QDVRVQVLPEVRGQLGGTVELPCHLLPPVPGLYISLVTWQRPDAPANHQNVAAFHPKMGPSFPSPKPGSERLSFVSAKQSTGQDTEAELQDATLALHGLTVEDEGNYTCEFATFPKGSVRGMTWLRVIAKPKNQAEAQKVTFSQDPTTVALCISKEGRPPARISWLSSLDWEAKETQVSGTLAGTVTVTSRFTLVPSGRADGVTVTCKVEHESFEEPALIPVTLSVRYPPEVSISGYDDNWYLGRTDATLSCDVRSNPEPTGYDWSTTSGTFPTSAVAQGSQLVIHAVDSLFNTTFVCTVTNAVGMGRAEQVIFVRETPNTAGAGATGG
As to the kind of experiment: ELISA, coated antigen, antibody at 10 ng/ml. How it is done:
(§1) Coating: Nectin-1, Nectin-2, Nectin-3, Nectin-4, Nectin-like-1, Nectin-like-2, Nectin-like-3, Nectin-like-4, and Nectin-like-5 were diluted to 5 μg/ml in coating buffer (carbonate buffer, pH 9.6) respectively. A 96-well plate was coat with 100 μl per well and incubated overnight at 2-8° C.;
(§2) Sample loading: The plate was taken out, patted dry, and washed twice with 200 μl/well of PBST, then patted dry. The Nectin-4 antibodies prepared in Example 1 (antibody MM11, antibody R012, and antibody R036) were diluted with 1% BSA/PBST to concentrations of 10 μg/ml, 1 μg/ml, 100 ng/ml, and 10 ng/ml, respectively. 1% BSA/PBST solution for dilution was set as a blank control. 100 μl per well was added to the 96-well plate, and incubated at room temperature for 2 hours;
(§3) Reaction termination and plate reading: 100 μl/well of 1 mol/L H3PO4 was added to terminate the reaction and the plated was read. The absorbances of wells in the plate at 450 nm with 650 nm as reference wavelength were read and recorded as OD_{450 nm-650 nm}.

Test [2] has as its target T2, Nectin-1 (UniProt Q15223 31-334, limits assumed).
T2 construct: Bought recombinant protein; also called CD111; PVRL-1
T2 sequence (looked up): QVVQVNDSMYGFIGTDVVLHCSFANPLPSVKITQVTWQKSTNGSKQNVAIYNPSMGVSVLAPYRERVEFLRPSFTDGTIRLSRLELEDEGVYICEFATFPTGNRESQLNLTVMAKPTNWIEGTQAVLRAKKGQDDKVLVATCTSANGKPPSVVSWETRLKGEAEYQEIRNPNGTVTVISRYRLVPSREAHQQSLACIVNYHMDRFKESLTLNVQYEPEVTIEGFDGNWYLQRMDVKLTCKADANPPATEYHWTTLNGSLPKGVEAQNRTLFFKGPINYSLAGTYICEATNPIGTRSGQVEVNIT
As to the kind of experiment: ELISA, coated antigen, antibody at 10 ng/ml. How it is done: as §1, §2, §3
Background: In an ELISA, binding on a coated surface is turned into a signal by an enzyme label.

The next test deals with T3, Nectin-like-1 (UniProt Q8N126 25-330, limits assumed).
T3 construct: Bought recombinant protein; also called CADM3; IgSF4B
T3 sequence (looked up): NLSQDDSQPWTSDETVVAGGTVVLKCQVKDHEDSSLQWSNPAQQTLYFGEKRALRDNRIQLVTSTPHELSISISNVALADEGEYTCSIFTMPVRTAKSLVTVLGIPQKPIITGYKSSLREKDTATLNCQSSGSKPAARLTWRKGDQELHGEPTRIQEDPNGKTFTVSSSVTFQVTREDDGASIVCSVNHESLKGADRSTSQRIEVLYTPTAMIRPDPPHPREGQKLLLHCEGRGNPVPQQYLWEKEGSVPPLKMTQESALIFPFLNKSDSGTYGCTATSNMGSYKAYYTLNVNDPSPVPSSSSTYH
Nature of the test: ELISA, coated antigen.

The target of another test is T4, Nectin-like-3 (UniProt Q8N3J6 25-367, limits assumed).
T4 construct: Bought recombinant protein; also called CADM2; IgSF4D
T4 sequence (looked up): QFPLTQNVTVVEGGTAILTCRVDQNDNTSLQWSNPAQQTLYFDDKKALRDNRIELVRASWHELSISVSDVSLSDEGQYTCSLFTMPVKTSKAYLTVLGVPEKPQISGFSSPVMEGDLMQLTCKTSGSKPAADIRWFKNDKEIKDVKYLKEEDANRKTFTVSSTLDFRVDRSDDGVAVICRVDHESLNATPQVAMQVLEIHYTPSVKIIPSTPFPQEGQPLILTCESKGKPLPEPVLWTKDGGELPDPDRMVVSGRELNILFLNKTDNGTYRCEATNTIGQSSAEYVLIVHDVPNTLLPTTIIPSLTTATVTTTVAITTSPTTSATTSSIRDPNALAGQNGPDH
Nature of the test: ELISA, coated antigen.

Test [3] concerns the target T1, Nectin-2. As to the kind of experiment: ELISA, coated antigen.
For a further test, the target named is T5, Nectin-like-5 (UniProt P15151 21-343).
T5 construct: Bought recombinant protein; also called CD155; PVR
T5 sequence (looked up): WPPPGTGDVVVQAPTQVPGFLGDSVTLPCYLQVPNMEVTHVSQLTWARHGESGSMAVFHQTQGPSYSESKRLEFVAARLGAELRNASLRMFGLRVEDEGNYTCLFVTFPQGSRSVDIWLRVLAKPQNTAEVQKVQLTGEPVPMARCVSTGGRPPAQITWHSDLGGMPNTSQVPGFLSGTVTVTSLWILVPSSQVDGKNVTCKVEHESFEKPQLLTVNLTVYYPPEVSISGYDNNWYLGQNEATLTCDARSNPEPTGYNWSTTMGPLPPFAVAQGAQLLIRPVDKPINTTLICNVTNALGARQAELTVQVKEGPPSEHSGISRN
As to the kind of experiment: ELISA, coated antigen.

The next test deals with T6, Nectin-like-2 (UniProt Q9BY67 45-374, limits assumed).
T6 construct: Bought recombinant protein; also called CADM1; IgSF4
T6 sequence (looked up): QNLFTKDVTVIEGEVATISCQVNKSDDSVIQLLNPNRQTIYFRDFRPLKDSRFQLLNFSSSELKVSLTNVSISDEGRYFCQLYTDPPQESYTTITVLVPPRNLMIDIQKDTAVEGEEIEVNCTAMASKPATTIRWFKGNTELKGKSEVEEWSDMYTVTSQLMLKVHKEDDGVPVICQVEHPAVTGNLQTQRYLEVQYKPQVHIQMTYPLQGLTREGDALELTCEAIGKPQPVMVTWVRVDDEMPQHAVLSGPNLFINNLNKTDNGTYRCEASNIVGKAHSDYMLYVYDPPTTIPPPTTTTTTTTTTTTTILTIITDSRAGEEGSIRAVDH
As to the kind of experiment: ELISA, coated antigen.

Test [4] deals with T2, Nectin-1. Nature of the test: ELISA, coated antigen.
A further test concerns the target T7, Nectin-3 (UniProt Q9NQS3 58-404, limits assumed).
T7 construct: Bought recombinant protein; also called CD113; PVRL-3
Nature of the test: ELISA, coated antigen.

T7 sequence (Q9NQS3 58-404 limits assumed): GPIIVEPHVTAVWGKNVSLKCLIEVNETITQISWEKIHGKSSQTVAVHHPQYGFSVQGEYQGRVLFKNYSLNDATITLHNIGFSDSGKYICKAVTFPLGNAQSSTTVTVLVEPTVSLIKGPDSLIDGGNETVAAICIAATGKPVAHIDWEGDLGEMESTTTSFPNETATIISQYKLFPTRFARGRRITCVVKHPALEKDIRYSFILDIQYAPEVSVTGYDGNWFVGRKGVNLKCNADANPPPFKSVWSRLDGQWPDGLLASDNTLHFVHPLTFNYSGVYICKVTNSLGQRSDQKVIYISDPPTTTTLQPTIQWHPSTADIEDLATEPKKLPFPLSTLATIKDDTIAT

B1: Antibody R012 (antibody, V domains shown)
VH: SKSVEESGGRLVTPGTPLTLTCTVSGFSLSTYAMSWVRQAPGKGLEYIGIISGRGTTYYASWLKGRFTISKTSTTVDLKITSPTTEDTATYFCARDAGISDVYTGYFNLWGQGTLVTVSS
VL: QPVLAQLPSASAALGASAKLTCTLSSAHRTYTIAWYQQQQGEAPRYLMMLKSDGSYTKGTGVPDRFSGSSSGADRYLIISSVQAADEADYYCGADDSGGYVFGGGTQLTVTG
notes: Rabbit monoclonal antibody from phage display; also called Nectin-4 rabbit monoclonal antibody R012; rabbit antibody R012
For the molecule B1, the OD detection value in the test with Nectin-2 [1] and with Nectin-1 [2] was 0.008 OD450 nm-650 nm in each case. Also, the binding result with Nectin-like-1, with Nectin-like-3, with Nectin-2 [3], with Nectin-like-5, in the test with Nectin-like-2 and in the test with Nectin-1 [4] was “no binding (tested: 10000 ng/ml)” throughout. In addition, the binding result in the test with Nectin-3 is “no binding (tested: 10000 ng/ml)”.

B2: Antibody R036 (antibody, V domains shown)
VH: SQSVEESGGRLVTPGTPLTLTCTVSGFSLSSYAMSWVRQAPGKGLEYIGIIGGRGTTYYAIWAKGRFTISKTSTTVDLKITSPTTEDTATYFCARDAGTTYVGTTYVATGYFNLWGQGTLVTVSS
VL: QPVLTQPPSASAALGASAKLTCTLSSAHKTYTIAWYQQQQGEAPRYLMILKSDGSYTRGTGVPDRFSGSSSGADRYLIISSVQADDEADYYCGADDSGGYVFGGGTQLTVTG
notes: Rabbit monoclonal antibody from phage display; also called Nectin-4 rabbit monoclonal antibody R036; rabbit antibody R036
Regarding B2, the OD detection value with Nectin-2 [1] and in the test with Nectin-1 [2] was 0.007 OD450 nm-650 nm throughout. Also, the binding result with Nectin-like-1, with Nectin-like-3, with Nectin-2 [3], with Nectin-like-5, in the test with Nectin-like-2 and with Nectin-1 [4] was “no binding (tested: 10000 ng/ml)” throughout. In the test with Nectin-3, the binding result is on record as “no binding (tested: 10000 ng/ml)”.

B3: Antibody MM11 (antibody, mouse IgG1, kappa, V domains shown)
VH: DVQLQESGPGLVKPSQSLSLTCSVTGYSITSNFYWNWIRQFPGNRLEWMGYISYDGSNNYNPSLKNRISISRDTSKNQFFLKLNSVTTEDTATYYCVRADYWGQGTLVTVSA
VL: DTVMTQTPLSLPVSLGDQASISCRSSQSLESSDGHAYLNWYLQKPGQSPQLLIYRVSNRFSGVLHRFSGSGSGTDFTLKISRVEAEDLGVYFCLQFTHVPFTFGSGTKLEIKR
notes: Mouse monoclonal antibody from hybridoma; also called Nectin-4 mouse monoclonal antibody MM11; mouse antibody MM11
Consider B3, for which the OD detection value came out at 0.014 OD450 nm-650 nm with Nectin-2 [1] and 0.006 OD450 nm-650 nm in the test with Nectin-1 [2]. Moreover, the binding result in the test with Nectin-like-1, with Nectin-like-3, with Nectin-2 [3], with Nectin-like-5, in the test with Nectin-like-2 and with Nectin-1 [4] was “no binding (tested: 10000 ng/ml)” throughout. For the same molecule, in the test with Nectin-3, the binding result was “no binding (tested: 10000 ng/ml)”.
